Measurements as given in US20070275049A1.

Columns and labels:
[1] = biological target: EGFR-derived peptide(s) on MHC class I of EGFR-positive MA782/5S tumor cells (mouse)
[2] = biological target: EGFR-derived peptide(s) on MHC class I (H-2Kb/H-2Db) of EGFR-positive LL/2c tumor cells (mouse)

spleen T cells of mice immunized by chEGFR molecular vaccine (cells without a defined receptor)
specific cytocidal activity, standard Cr51 test, at the ratio of 40:1 [1]: 42.8% | specific cytocidal activity, standard Cr51 test, at the ratio of 40:1 [2]: 40.3%
